Measurements as given in patent US5827666A, “Synthetic multiple tandem repeat mucin and mucin-like peptides, and uses thereof” (priority 1994, dated 1998).

Assay: circular dichroism at 25-90° C.
Type: physicochemical
Conditions: 0.01M phosphate buffer pH 7.2

For “TITPPQAMGPNLVLPDQKPPSRQSQTGSKVATQRPQTNESAPRSVAPTTVGPKRIGTGDR (TITPPQAMGPNLVLPDQKPPSRQSQTGSKVATQRPQTNESAPRSVAPTTVGPKRIGTGDR) [PRN60, 60 amino acid proline-rich domain of feline leukemia virus gp-70]”, the “decrease of CD intensity at 198 nm at 90° C. as compared to 25° C.” value was 29%.
